Patent publication US20240076386

Assay: AC-SINS self-interaction

Polyreactivity negative control
AC-SINS (wavelength of maximum absorbance relative to blank, nm): 1 nm
